Experimental data from patent US20230279105A1 (SINGLE CELL TECHNOLOGY, published 2023).

biological target: T1, Human TIM-3 Human Fc tagged protein (human, fluorescently labeled with HiLyte Fluor 555 (sites not given)); experiment: capture slide probed with labeled TIM-3-Fc;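 note: IgG from single CD138-enriched plasma cells, isolated from lymphocytes, immobilized on a derivatized glass slide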
T1 construct: Bought construct; also called TIM-3 protein tagged with human Fc; ACROBiosystems catalog no: TM3-H5258

Binder | binding result
SCT-Fa065 (antibody, V domains shown, murine IgG) VH: EVQLQQSGTVLARPGASVKMSCKTSGYTFTRYWMHWVKQRPGQGLEWIGAIYPGNSDTNYNQKIKGKAKLTAVTTASTAYMELISLTNEDSAVYYCTFYYGNYVNYWGQGTTLTVSS VL: not shown | binds
SCT-Fa066 (antibody, V domains shown, murine IgG) VH: EVQLQQSGTVLARPGASVKMSCKTSGYTFTRYWMHWVKQRPGQGLEWIGAIYPGNSDTNYNQKIKGKAKLTAVTTASTAYMELSSLTNEDSAAYYCTFYYGNYVNYWGQGTTLTVSS VL: not shown | binds
SCT-Fa067 (antibody, V domains shown, murine IgG) VH: EVQLQQSGTVLARPGASVKMSCKTSGYTFTRYWMHWVKQRPGQGLEWIGAIYPGNSDTNYNQKIKGKAKLTAVTTASTAYMELSSLTNEDSAVYYCTFYYGNYVNYWGQGTTLTVSS VL: not shown | binds
SCT-Fa069 (antibody, V domains shown, murine IgG) VH: EVQLQQSGTVLARPGASVKMSCKTSGYTFTRYWMHWVKQRPGQGLEWIGAIYPGNSDTNYNQKIQDKAKLTAVTTASTAYMELSSLTNEDSAVYYCTFFYGNYVNYWGQGTTLTVSS VL: not shown | binds
SCT-Fa064 (antibody, V domains shown, murine IgG) VH: EVQLQQSGTVLARPGASVKMSCKTSGYTFTRYWMHWVKQRPGQGLEWIGAIYPGNSDTNYNQKIKDKAKLTAVTTASTAYMELSSLTNEDSAVYYCTFFYGNYVNYWGQGTTLTVSS VL: not shown | binds
SCT-Fa072 (antibody, V domains shown, murine IgG) VH: EVQLVESGGDLVKPGGSLKLSCAASGFTFSDYGMSWVRQTPDKRLEWVATISSGGSYTYYADSVKGRFTISRDNAKNTLYLQMSSLKSEDTAMYFCTRHEITTVLSTDYAMDYWGQGTSVTVSS VL: DVVMTQTPLSLPVSLGDQASISCRSSQSLVHSIGNTYLHWYLQKPGQSPKLLIYKVSNRFSGVPDRFSGSGSGTDFTLKIIRVEAEDLGVYFCSQSTHIPWTFGGGTKLELR | binds
SCT-Fa076 (antibody, V domains shown, murine IgG) VH: EVQVLETGGGLVQPGGSRGLSCEGSGFTFSGFWMSWVRQTPGKTLEWIGDINSDGSTIHYGPSMKDRFTIFRDNDKNTLYLQMNNVRSEDTAKYFCMSLLLNVWGTGTTVTVSS VL: DIQMTQSPSSLSASLGERVSLTCRASQEISGYLSWLQQKPDGTIKRLISRASSLDFGVPKRFRGSRSGSDYSLTISSLESEDFADYYCLQYANYPLTFGAGTKLELK | binds
SCT-Fa077 (antibody, V domains shown, murine IgG) VH: EVRLVESEGGLVQPGSSMKLSCTASGFTFSDYYMAWVRQVPEKGLEWVANINYDGTNTYYLDSLKSRFIISRDNAKNILYLQMSGLKSEDTATYYCGRGIYYYGRSHAMDYWGQGTSVTVSS VL: DILMTQSPSSMSVSLGDTVSITCHASQGINNNVGWLQQKPGKSFKGLIYHGTNLEDGVPSRFSGSGSGADYSLTIYSLESEDFADYYCVQYDQFPPTFGGGTKLEIK | binds
SCT-Fa088 (antibody, V domains shown, murine IgG) VH: QIQLQQSGPELVKPGASVKISCKASGYTFTDYYINWVKQRPGQGLEWIGWIYPGSGNTKYNEKFKGKATLTVDTSSSTAYMQLSSLTSEDSAVYFCARAYDYGFAYWGQGTLVTVSA VL: SIVMTQTPKFLLVSAGDRVTITCKASQSVSHGVTWYQQKPGQSPKLLISYASNRYTGVPDRFTGSGYGTDFTFTISTVQAEDLAVYFCQQDYSSPYTFGGGTKLEIK | binds
SCT-Fa086 (antibody, V domains shown, murine IgG) VH: QIQLQQSGPELVKPGASVKISCKASGYTFTDYYINWVKQRPGQGLEWIGWIYPGSGNTKYNEKFKGKATLTVDTSSNTAYMQLSSLTSEDSAVYFCARAYDYGFPYWGQGTLVTVSA VL: SIVMTQTPKFLLVSAGDRVTITCKASQSMNNGVTWYQQKPGQSPKLLISYASNRYTGVPDRFTGSGYGTDFTFTISAVQAEDLAVYFCQQDYSSPYTFGGGTKLEIK | binds
SCT-Fa087 (antibody, V domains shown, murine IgG) VH: QIQLQQSGPELVKPGASVKISCKASGYTFTDYYINWVKQRPGQGLEWIGWIYPGSGNTKYNEKFKGKATLTVDTSSSTAYMHLSSLTSEDSAVYFCARAYDYGFAYWGQGTLVTVSA VL: SIVMTQTPKFLLVSAGDRVTITCKASQSVSYGVTWYQQKPGQSPKLLISYSSNRYTGVPDRFTGSGSGTDFTFTISTVQAEDLAVYFCQQDYSSPYTFGGGTKLEIK | binds
SCT-Fa092 (antibody, V domains shown, murine IgG) VH: QIQLVQSGPEMKKPGETVKISCKASGYTFRTYGMSWVKQAPGKGLEWMGWINTYSGEPTYADDFKGRFAFSLETSANTAYLQINNLKNEDTATFFCARAQHYFDWWGQGTTLTVSS VL: DIKMTQSPSSMYASLGERVTITCKASQDIDSYLNWFQQKPGKSPKTLIYRATRLVDGVPSRFSGSGSGQDYSLTISSLEYEDMGIYYCLQYDEFPYTFGGGTKLEIK | binds
SCT-Fa090 (antibody, V domains shown, murine IgG) VH: QIQLVQSGPEMKKPGETVKISCKASGYIFRTYGMSWVKQAPGKGLEWMGWINTYSGEPTYADDFKGRFAFSLETSANTAYLQINNLKNEDTATFFCARAQHYFDWWGQGTTLTVSS VL: DIKMTQSPSSMYASLGERVTITCKASQDIDSYLNWFQQKPGKSPKTLIYRATRLVDGVPSRFSGSGSGQDYSLTISSLEYEDMGIYYCLQYDEFPYTFGGGTKLEIK | binds
SCT-Fa091 (antibody, V domains shown, murine IgG) VH: QIQLVQSGPEMKKPGETVKISCKASGYTFRTYGMSWVKQAPGKGLEWMGWINTYSGEPTYADDFKGRFAFSLETSANTAYLQINNLKNEDTATFFCARAQHYFDWWGQGTTLTVSS VL: DIKMTQSPSSMYASLGERVTITCKASQDIDRYLNWFQQKPGKSPKTLIYRATRLVDGVPSRFSGSGSGQDYSLTISSLEYEDMGIYYCLQYDEFPYTFGGGTKLEIK | binds
SCT-Fa094 (antibody, V domains shown, murine IgG) VH: QVLLQQPGAELVRPGTSVKLSCKASGYTFTNFWMHWVKQRPGQGLEWIGVIDPSDISTHYNQNFKGKAILTVDTSSSSAYMQLSSLTSEDSAVYYCARNDYDGGYFDYWGQGTTLTVSS VL: DVVMTQTPLSLPVSLGDQASISCRSSQSLVHGNGNTYLHWYLQKPGQSPKLLIYTVSNRFSGVPDRFSGSGSGTDFTLKISRVEAEDLGVYFCSQTIHAPWTFGGGTKLEIK | binds
SCT-Fa095 (antibody, V domains shown, murine IgG) VH: QVQLKESGPGLVAPSQSLSITCTVSGFSLTSSVISWVRQPPGKGLEWLGIIWAGGDTNYNSALKSRLSISKDNSKSQVFLKMNSLQTDDTARYYCARNLNAMDYWGQGTSVTVSS VL: DVLMTQTPLSLTVSLGDQASISCRSSQSIVHSNGNTYLEWFLQKPGQSPKLLIYKVSNRFSGVPDRFSGSGSGTDFTLKISRVEAEDLGVYYCFQGSHVPWTFGGGTKLEIK | binds
